Source: IntAct's records for PubMed 20596027

B1: Centriolar coiled-coil protein of 110 kDa (Homo sapiens), O43303-2 (parent)
chain: MEEYEKFCEKSLARIQEASLSTESFLPAQSESISLIRFHGVAILSPLLNIEKRKEMQQEKQKALDVEARKQVNRKKALLTRVQEILDNVQVRKAPNASDFDQWEMETVYSNSEVRNLNVPATFPNSFPSHTEHSTAAKLDKIAGILPLDNEDQCKTDGIDLARDSEGFNSPKQCDSSNISHVENEAFPKTSSATPQETLISDGPFSVNEQQDLPLLAEVIPDPYVMSLQNLMKKSKEYIEREQSRRSLRGSINRIVNESHLDKEHDAVEVADCVKEKGQLTGKHCVSVIPDKPSLNKSNVLLQGASTQASSMSMPVLASFSKVDIPIRTGHPTVLESNSDFKVIPTFVTENNVIKSLTGSYAKLPSPEPSMSPKMHRRRSRTSSACHILINNPINACELSPKGKEQAMDLIIQDTDENTNVPEIMPKLPTDLAGVCSSKVYVGKNTSEVKEDVVLGKSNQVCQSSGNHLENKVTHGLVTVEGQLTSDERGAHIMNSTCAAMPKLHEPYASSQCIASPNFGTVSGLKPASMLEKNCSLQTELNKSYDVKNPSPLLMQNQNTRQQMDTPMVSCGNEQFLDNSFEKVKRRLDLDIDGLQKENCPYVITSGITEQERQHLPEKRYPKGSGFVNKNKMLGTSSKESEELLKSKMLAFEEMRKRLEEQHAQQLSLLIAEQEREQERLQKEIEEQEKMLKEKKAMTAEASELDINNAVELEWRKISDSSLLETMLSQADSLHTSNSNSSGFTNSAMQYSFVSANEAPFYLWGSSTSGLTKLSVTRPFGRAKTRWSQVFSLEIQAKFNKITAVAKGFLTRRLMQTDKLKQLRQTVKDTMEFIRSFQSEAPLKRGIVSAQDASLQERVLAQLRAALYGIHDIFFVMDAAERMSILHHDREVRKEKMLRQMDKMKSPRVALSAATQKSLDRKKYMKAAEMGMPNKKFLVKQNPSETRVLQPNQGQNAPVHRLLSRQGSICRKNPKKAAKCCDNLRRQHSLG
partner: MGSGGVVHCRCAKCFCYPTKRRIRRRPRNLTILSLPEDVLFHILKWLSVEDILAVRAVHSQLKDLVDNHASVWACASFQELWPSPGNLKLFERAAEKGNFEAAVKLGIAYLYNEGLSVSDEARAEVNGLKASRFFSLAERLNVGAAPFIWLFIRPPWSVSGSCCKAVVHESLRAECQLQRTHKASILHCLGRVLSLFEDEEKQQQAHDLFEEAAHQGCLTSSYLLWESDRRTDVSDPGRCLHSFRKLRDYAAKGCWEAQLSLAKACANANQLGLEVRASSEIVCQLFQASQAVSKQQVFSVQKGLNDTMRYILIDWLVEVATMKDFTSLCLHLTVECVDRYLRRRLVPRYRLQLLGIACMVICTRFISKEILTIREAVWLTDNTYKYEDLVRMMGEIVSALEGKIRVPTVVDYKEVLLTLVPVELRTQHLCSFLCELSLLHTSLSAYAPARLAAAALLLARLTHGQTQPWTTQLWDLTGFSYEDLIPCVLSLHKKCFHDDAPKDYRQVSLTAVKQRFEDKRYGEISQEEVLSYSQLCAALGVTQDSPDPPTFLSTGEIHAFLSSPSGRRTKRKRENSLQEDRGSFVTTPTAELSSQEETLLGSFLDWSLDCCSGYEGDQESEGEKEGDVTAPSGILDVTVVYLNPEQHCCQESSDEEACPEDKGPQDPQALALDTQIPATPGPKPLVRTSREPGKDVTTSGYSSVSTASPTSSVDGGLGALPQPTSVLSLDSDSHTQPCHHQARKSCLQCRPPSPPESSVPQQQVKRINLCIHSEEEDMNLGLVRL
B2: Cyclin-F (Homo sapiens), P41002 (parent)
chain: B1 partner

Variants of: B1
Conditions: with ccnf_human CCNF

| effect of a mutation on the interaction | Variant |
| --- | --- |
| disrupting interaction | L588A;L590A |

Variants of: B2
Conditions: with cp110_human CCP110, O43303

| effect of a mutation on the interaction | Variant |
| --- | --- |
| disrupting interaction | M309A;L313A |

Variants of: B2
Conditions: with cul1_human CUL1, Q13616
cul1_human CUL1, Q13616, sequence (Q13616 whole entry): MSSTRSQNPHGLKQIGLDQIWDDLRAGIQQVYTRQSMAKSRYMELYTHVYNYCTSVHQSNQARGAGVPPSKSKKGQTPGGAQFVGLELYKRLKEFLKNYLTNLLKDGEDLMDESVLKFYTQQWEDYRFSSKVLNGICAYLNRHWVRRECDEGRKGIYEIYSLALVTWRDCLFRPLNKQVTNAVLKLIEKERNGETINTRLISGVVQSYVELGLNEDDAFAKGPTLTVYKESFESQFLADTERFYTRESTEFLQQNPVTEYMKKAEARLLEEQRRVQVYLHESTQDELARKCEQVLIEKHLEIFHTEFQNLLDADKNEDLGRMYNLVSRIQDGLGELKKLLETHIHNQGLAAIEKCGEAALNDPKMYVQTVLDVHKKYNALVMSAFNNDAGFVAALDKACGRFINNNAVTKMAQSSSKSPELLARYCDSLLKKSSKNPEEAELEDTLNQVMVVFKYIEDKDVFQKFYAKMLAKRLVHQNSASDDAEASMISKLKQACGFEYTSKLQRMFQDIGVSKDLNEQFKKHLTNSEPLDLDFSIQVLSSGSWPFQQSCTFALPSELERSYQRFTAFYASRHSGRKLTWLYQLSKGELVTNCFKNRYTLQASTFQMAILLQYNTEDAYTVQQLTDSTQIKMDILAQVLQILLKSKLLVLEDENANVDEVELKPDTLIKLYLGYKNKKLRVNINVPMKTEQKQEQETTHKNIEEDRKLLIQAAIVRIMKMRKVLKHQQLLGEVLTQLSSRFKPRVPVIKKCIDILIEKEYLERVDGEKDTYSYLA

| effect of a mutation on the interaction | Variant |
| --- | --- |
| disrupting interaction | L35A;P36A |
